Two substances from patent publication US20150218227 can be followed below.

What is called Kd is a measure of binding affinity in units of concentration. Read a low Kd as tighter binding.

In data set [1] the target is PPR10 NS variant motifs 6 and 7 (position 6, 1') changed to N6,S1' (Zea mays) (UniProt B8Y6I0). Description: EMSA. The following applies: RNA 15 pM.
For data set [2], the target named is PPR10 ND variant motifs 6 and 7 (position 6, 1') changed to N6,D1' (Zea mays) (UniProt B8Y6I0). Description: EMSA. The following applies: RNA 15 pM. A general note: Mobility shift assays separate free from complexed probe on a gel.

For atpH CC-substituted RNA, the figures for the Kd in data set [1] and in data set [2] were 9 nM and 17 nM, respectively.
For atpH UU-substituted RNA, in that order: 20 nM and 3 nM.
